Source: publication PMC2279300

Assays:
[1] = target: biotinylated oligopeptide spanning one repeat unit of the TARP phosphodomain, first tyrosine phosphorylated (pY1) (Chlamydia trachomatis serovar L2)
[2] = target: biotinylated oligopeptide spanning one repeat unit of the TARP phosphodomain, second tyrosine phosphorylated (pY2) (Chlamydia trachomatis serovar L2)
Sequence of biotinylated oligopeptide spanning one repeat unit of the TARP phosphodomain, second tyrosine phosphorylated (pY2) (Chlamydia trachomatis serovar L2) (Q6GX35 174-222): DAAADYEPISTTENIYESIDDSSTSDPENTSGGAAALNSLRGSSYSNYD

Sequence of biotinylated oligopeptide spanning one repeat unit of the TARP phosphodomain, first tyrosine phosphorylated (pY1) (Chlamydia trachomatis serovar L2) (Q6GX35 174-222): as above

Substance	guanine nucleotide exchange activity towards His-Rac1 of the pY1 oligopeptide precipitate from regular HeLa lysate (32P label retained on filters) [1]	guanine nucleotide exchange activity towards His-Cdc42 of the pY1 oligopeptide precipitate from lysate supplemented with PI 3,4,5-P3 (32P label retained on filters) [1]	guanine nucleotide exchange activity towards His-Rac1 of the pY1 oligopeptide precipitate from lysate supplemented with PI 3,4,5-P3 (32P label retained on filters) [1]	guanine nucleotide exchange activity towards His-Cdc42 of the pY2 oligopeptide precipitate from lysate supplemented with PI 3,4,5-P3 (32P label retained on filters) [2]	guanine nucleotide exchange activity towards His-Rac1 of the pY2 oligopeptide precipitate from lysate supplemented with PI 3,4,5-P3 (32P label retained on filters) [2]
Sos1 (from UniProt Q07889 1-1333) (natural protein)	31000 CPM				
Vav2 (from UniProt P52735 1-878) (natural protein)		28700 CPM	51200 CPM	23000 CPM	31700 CPM
